These results are taken from patent publication US20190309072A1 (published 2019).

Sequences and labels used below:
T1: human ITGa3 protein (human, UniProt P26006 33-991)
T1 chain: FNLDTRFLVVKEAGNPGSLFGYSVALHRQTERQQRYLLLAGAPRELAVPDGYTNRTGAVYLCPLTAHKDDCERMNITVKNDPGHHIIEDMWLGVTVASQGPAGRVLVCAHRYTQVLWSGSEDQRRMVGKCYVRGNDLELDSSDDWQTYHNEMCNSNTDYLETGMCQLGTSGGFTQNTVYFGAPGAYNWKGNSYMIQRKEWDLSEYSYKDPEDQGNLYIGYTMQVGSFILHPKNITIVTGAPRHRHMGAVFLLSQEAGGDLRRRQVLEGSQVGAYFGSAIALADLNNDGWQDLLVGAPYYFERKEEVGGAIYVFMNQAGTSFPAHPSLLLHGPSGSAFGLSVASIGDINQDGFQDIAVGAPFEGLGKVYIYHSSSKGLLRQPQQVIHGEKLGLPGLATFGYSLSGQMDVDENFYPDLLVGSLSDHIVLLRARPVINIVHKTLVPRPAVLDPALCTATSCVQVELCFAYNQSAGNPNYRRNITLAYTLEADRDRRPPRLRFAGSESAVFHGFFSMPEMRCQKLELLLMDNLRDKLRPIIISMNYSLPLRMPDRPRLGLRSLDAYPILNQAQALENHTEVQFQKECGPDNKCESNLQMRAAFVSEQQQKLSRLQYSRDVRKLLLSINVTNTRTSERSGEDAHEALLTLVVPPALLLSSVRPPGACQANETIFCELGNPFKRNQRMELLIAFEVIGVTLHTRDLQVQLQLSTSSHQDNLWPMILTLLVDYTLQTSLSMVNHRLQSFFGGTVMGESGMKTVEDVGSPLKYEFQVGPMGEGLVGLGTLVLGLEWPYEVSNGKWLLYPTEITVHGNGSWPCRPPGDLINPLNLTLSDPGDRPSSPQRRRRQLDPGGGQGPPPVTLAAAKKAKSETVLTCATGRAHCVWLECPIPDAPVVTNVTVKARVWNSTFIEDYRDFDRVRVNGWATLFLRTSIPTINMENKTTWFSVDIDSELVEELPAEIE

B1: ITGa3-VM2 (antibody, V domains shown)
VH: EVQLQESGAELVKPGTSVRLSCKASGYTFTEYIIHWVKQRSGQGLEWIGWFYPESGSVKYNETFKGRATLTADKSSSTVYMELSRLTSEDSAVYFCARHEERDYYGYYAMDYWGQGTSVTVSS
VL: DIVMTQTPTTLAASPGEKIIITCSASSSISSNYLHWYQQKPGFSPKLLIYRTSNLASGVPARFSGSGSGTSYSLTIGTMEAEDVATYYCQQGSSIPRFTSGSGTKLEIK
B2: Lc1/Hc1S (VH of SEQ ID NO: 4 and VL of SEQ ID NO: 12) (antibody, V domains shown)
VH: QVQLVQSGAEVKKPGSSVKVSCKASGYTFTEYIIHWVRQAPGQGLEWIGWFYPESGSVKYSETFKGRATLTADKSTSTAYMELSSLRSEDTAVYYCARHEERDYYGYYAMDYWGQGTTVTVSS
VL: DIQMTQSPSSLSASVGDRVIITCSASSSISSNYLHWYQQKPGKVPKLLIYRTSNLASGVPSRFSGSGSGTDYTLTISSLQPEDVATYYCQQGSSIPRFTSGGGTKVEIK
B3: Lc2/Hc2A (antibody, V domains shown)
VH: QVQLVQSGAEVKKPGSSVKVSCKASGYTFTEYIIHWVRQAPGQGLEWIGWFYPESGSVKYNEAFKGRATITADKSTSTAYMELSSLRSEDTAVYYCARHEERDYYGYYAMDYWGQGTTVTVSS
VL: DIQMTQSPSSLSASVGDRVIITCSASSSISSNYLHWYQQKPGKVPKLLIYRTSNLASGVPSRFSGSGSGTDYTLTISSLQPEDVATYYCQQGSSIPRFTSGGGTKVEIK
B4: Lc1/Hc1 (antibody, V domains shown)
VH: QVQLVQSGAEVKKPGSSVKVSCKASGYTFTEYIIHWVRQAPGQGLEWIGWFYPESGSVKYNETFKGRATLTADKSTSTAYMELSSLRSEDTAVYYCARHEERDYYGYYAMDYWGQGTTVTVSS
VL: DIQMTQSPSSLSASVGDRVTITCSASSSISSNYLHWYQQKPGKVPKLLIYRTSNLASGVPSRFSGSGSGTDYTLTISSLQPEDVATYYCQQGSSIPRFTSGGGTKVEIK
B5: Lc1/Hc2 (antibody, V domains shown)
VH: QVQLVQSGAEVKKPGSSVKVSCKASGYTFTEYIIHWVRQAPGQGLEWIGWFYPESGSVKYNETFKGRATITADKSTSTAYMELSSLRSEDTAVYYCARHEERDYYGYYAMDYWGQGTTVTVSS
VL: DIQMTQSPSSLSASVGDRVTITCSASSSISSNYLHWYQQKPGKVPKLLIYRTSNLASGVPSRFSGSGSGTDYTLTISSLQPEDVATYYCQQGSSIPRFTSGGGTKVEIK
B6: Lc1/Hc2A (antibody, V domains shown)
VH: QVQLVQSGAEVKKPGSSVKVSCKASGYTFTEYIIHWVRQAPGQGLEWIGWFYPESGSVKYNEAFKGRATITADKSTSTAYMELSSLRSEDTAVYYCARHEERDYYGYYAMDYWGQGTTVTVSS
VL: DIQMTQSPSSLSASVGDRVTITCSASSSISSNYLHWYQQKPGKVPKLLIYRTSNLASGVPSRFSGSGSGTDYTLTISSLQPEDVATYYCQQGSSIPRFTSGGGTKVEIK
B7: Lc1/Hc2S (antibody, V domains shown)
VH: QVQLVQSGAEVKKPGSSVKVSCKASGYTFTEYIIHWVRQAPGQGLEWIGWFYPESGSVKYSETFKGRATITADKSTSTAYMELSSLRSEDTAVYYCARHEERDYYGYYAMDYWGQGTTVTVSS
VL: DIQMTQSPSSLSASVGDRVTITCSASSSISSNYLHWYQQKPGKVPKLLIYRTSNLASGVPSRFSGSGSGTDYTLTISSLQPEDVATYYCQQGSSIPRFTSGGGTKVEIK
B8: Lc2/Hc2S (antibody, V domains shown)
VH: QVQLVQSGAEVKKPGSSVKVSCKASGYTFTEYIIHWVRQAPGQGLEWIGWFYPESGSVKYSETFKGRATITADKSTSTAYMELSSLRSEDTAVYYCARHEERDYYGYYAMDYWGQGTTVTVSS
VL: DIQMTQSPSSLSASVGDRVIITCSASSSISSNYLHWYQQKPGKVPKLLIYRTSNLASGVPSRFSGSGSGTDYTLTISSLQPEDVATYYCQQGSSIPRFTSGGGTKVEIK
B9: Lc2/Hc1 (antibody, V domains shown)
VH: QVQLVQSGAEVKKPGSSVKVSCKASGYTFTEYIIHWVRQAPGQGLEWIGWFYPESGSVKYNETFKGRATLTADKSTSTAYMELSSLRSEDTAVYYCARHEERDYYGYYAMDYWGQGTTVTVSS
VL: DIQMTQSPSSLSASVGDRVIITCSASSSISSNYLHWYQQKPGKVPKLLIYRTSNLASGVPSRFSGSGSGTDYTLTISSLQPEDVATYYCQQGSSIPRFTSGGGTKVEIK
B10: Lc2/Hc2 (antibody, V domains shown)
VH: QVQLVQSGAEVKKPGSSVKVSCKASGYTFTEYIIHWVRQAPGQGLEWIGWFYPESGSVKYNETFKGRATITADKSTSTAYMELSSLRSEDTAVYYCARHEERDYYGYYAMDYWGQGTTVTVSS
VL: DIQMTQSPSSLSASVGDRVIITCSASSSISSNYLHWYQQKPGKVPKLLIYRTSNLASGVPSRFSGSGSGTDYTLTISSLQPEDVATYYCQQGSSIPRFTSGGGTKVEIK
B11: Lc1/Hc1A (antibody, V domains shown)
VH: QVQLVQSGAEVKKPGSSVKVSCKASGYTFTEYIIHWVRQAPGQGLEWIGWFYPESGSVKYNEAFKGRATLTADKSTSTAYMELSSLRSEDTAVYYCARHEERDYYGYYAMDYWGQGTTVTVSS
VL: DIQMTQSPSSLSASVGDRVTITCSASSSISSNYLHWYQQKPGKVPKLLIYRTSNLASGVPSRFSGSGSGTDYTLTISSLQPEDVATYYCQQGSSIPRFTSGGGTKVEIK
B12: Lc2/Hc2G (antibody, V domains shown)
VH: QVQLVQSGAEVKKPGSSVKVSCKASGYTFTEYIIHWVRQAPGQGLEWIGWFYPESGSVKYNEGFKGRATITADKSTSTAYMELSSLRSEDTAVYYCARHEERDYYGYYAMDYWGQGTTVTVSS
VL: DIQMTQSPSSLSASVGDRVIITCSASSSISSNYLHWYQQKPGKVPKLLIYRTSNLASGVPSRFSGSGSGTDYTLTISSLQPEDVATYYCQQGSSIPRFTSGGGTKVEIK
B13: Lc1/Hc1S (antibody, V domains shown)
VH: QVQLVQSGAEVKKPGSSVKVSCKASGYTFTEYIIHWVRQAPGQGLEWIGWFYPESGSVKYSETFKGRATLTADKSTSTAYMELSSLRSEDTAVYYCARHEERDYYGYYAMDYWGQGTTVTVSS
VL: DIQMTQSPSSLSASVGDRVTITCSASSSISSNYLHWYQQKPGKVPKLLIYRTSNLASGVPSRFSGSGSGTDYTLTISSLQPEDVATYYCQQGSSIPRFTSGGGTKVEIK
B14: Lc2/Hc1A (antibody, V domains shown)
VH: QVQLVQSGAEVKKPGSSVKVSCKASGYTFTEYIIHWVRQAPGQGLEWIGWFYPESGSVKYNEAFKGRATLTADKSTSTAYMELSSLRSEDTAVYYCARHEERDYYGYYAMDYWGQGTTVTVSS
VL: DIQMTQSPSSLSASVGDRVIITCSASSSISSNYLHWYQQKPGKVPKLLIYRTSNLASGVPSRFSGSGSGTDYTLTISSLQPEDVATYYCQQGSSIPRFTSGGGTKVEIK
B15: Lc1/Hc1G (antibody, V domains shown)
VH: QVQLVQSGAEVKKPGSSVKVSCKASGYTFTEYIIHWVRQAPGQGLEWIGWFYPESGSVKYNEGFKGRATLTADKSTSTAYMELSSLRSEDTAVYYCARHEERDYYGYYAMDYWGQGTTVTVSS
VL: DIQMTQSPSSLSASVGDRVTITCSASSSISSNYLHWYQQKPGKVPKLLIYRTSNLASGVPSRFSGSGSGTDYTLTISSLQPEDVATYYCQQGSSIPRFTSGGGTKVEIK

The target of the assay is T1, human ITGa3 protein. Description: ELISA; apparent Kd.
As for B1, the Kd was determined as 0.23 nM.

B2: the Kd turned out to be 0.18 nM.

As for B3, the Kd came to 0.24 nM.

For B4, the Kd turned out to be 0.18 nM.

B5: the Kd turned out to be 0.07 nM.

Consider B6, for which the Kd came to 0.27 nM.

Take B7: the Kd came to 0.32 nM.

Consider B8, for which the Kd was found to be 0.24 nM.

Take B9: the Kd turned out to be 0.18 nM.

Take B10: the Kd is 0.1 nM.

For the molecule B11, the Kd amounted to 0.32 nM.

For the molecule B12, the Kd was 0.18 nM.

Regarding B13, the Kd is 0.18 nM.

Consider B14, for which the Kd amounted to 0.23 nM.

Take B15: the Kd was 0.23 nM.
